The test system of assay [1] is K. pneumoniae carbapenem-resistant (CRE) strain Kp1131115 (O1). The assay can be described thus: acute lethal pneumonia model, survival. It is filed as in vivo, Klebsiella pneumoniae. The settings on record: C57BL/6 mice, antibody one hour post bacterial challenge, vs human IgG1 control (R347). The method, then:
In an acute pneumonia model, C57BL/6 mice were inoculated intranasally with 1e4 to 1e8 CFU of the multi-drug resistant Klebsiella pneumoniae carbapenam resistant (CRE) clinical isolate strain KP1131115 (O1). Anti-K. pneumoniae monoclonal antibody KPE33 at 0.2, 1, and 5 mg/kg and human IgG1 control antibody at 5 mg/kg were given one hour post bacterial challenge (therapeutic dosing). Mouse survival was monitored daily until up to day 8.
Additionally, in an acute pneumonia model, C57BL/6 mice were inoculated intranasally with 1e4 to 1e8 CFU of the multi-drug resistant Klebsiella pneumoniae carbapenam resistant (CRE) clinical isolate strain KP1131115 (O1). Anti-K. pneumoniae monoclonal antibodies […] and […] at 0.2 and 1 mg/kg and human IgG1 control antibody at 5 mg/kg were given one hour post bacterial challenge (therapeutic dosing). Mouse survival was monitored daily until up to day 8.
KPE33 or KPE33-V-2016 were administered at a dose of 6 mg/kg 1 hour post bacterial infection with a Klebsiella pneumoniae carbapenam resistant strain.

For a further assay, the target named is O1 LPS. The assay can be described thus: Octet binding affinity to O1 LPS. The following applies: average, from on-rate and off-rate, read-out: affinity constant (KD) to O1 LPS. More on the design: species or system Klebsiella pneumoniae. The source says: In order to reduce potential sequence liabilities for antibody development including potential immunogenicity due to anti-drug antibodies, an unpaired Cysteine in the light chain CDR3 of KPE33 was exchanged with Threonine (T), and somatic mutations in the frameworks 1, 2, and 4 of KPE33 were replaced with germ line residues (as summarized in FIG. 5). CDRs were maintained as wildtype, except for the C107T substitution described above. The optimized KPE33 was named KPE33v2016. […] This platform provides a powerful tool to measure the rate of biomolecular complex formation and complex stability in a more biologically meaningful setting. Briefly, Protein A coated sensors were coated with 2 μg/mL O1 LPS for 10 minutes before being dipped into solution containing 0.2 μg/mL anti-O1 LPS mAbs in Kinetics buffer (ForteBio, dilute 10× to 1× with PBS). Changes in the number of molecules bound to the biosensor caused a shift in the interference pattern that was recorded in real time. […] The affinity constant (KD) of KPE33 and KPE33v2016 to O1 LPS was calculated based on the on-rate and off-rate from Octet sensorgram.
KPE33v2016 was further optimized, thereby creating two new variants—KPE33 H32+L2016(1EQ) and KPE33 H33+L2016(1EQ). Both of these variants contain a Methionine to Isoleucine mutation adjacent to CDRH1, a Tryptophan to Tyrosine mutation in CDRH2, an Aspartate to Glutamate mutation adjacent to CDRH2, Asparagine to Glutamine and Methionine to Leucine mutations in FRH3 and an Aspartate to Asparagine mutation in CDRH3. In addition, KPE33 H32+L2016(1EQ) had four FRH3 residues changed to the germ-line residues, whereas KPE33 H33+L2016(1EQ) only has three of the same FRH3 residues changed to the germ-line. Both of these variants contain the same light chain as KPE33v2016, but with a single Glutamate to Glutamine mutation in residue 1.

B1: KPE33 H32+L2016(1EQ): further optimized variant of KPE33v2016, VH SEQ ID NO:61, VL SEQ ID NO:63 (antibody, V domains shown)
VH: QVQLVESGGGLVQPGRSLRLSCAASGFIFDDYAIHWVRQAPGKGLEWVSGIAYKSGATNYAESVKGRFTISRDQSKNSLYLQMNSLRAEDTALYYCTRRRASGDNTFYYFDYWGQGTLVTVSS
VL: QIVLTQSPATLSLSPGERATLSCRASQNVNTNLAWYQQKPGQAPRLLIYDASNRATGIPARFSGSGSGTDFTLTISSLEPEDFAVYYCQQTTNWRYTFGQGTKLEIK
As to B1, the figures for the “survival, lethal pneumonia Kp1131115” value in assay [1] and in assay [1] (listed as KPE33-H32+L2016(EQ1)) were “dose dependently enhanced survival” and “protect mice from lethal bacterial challenge”, respectively. At O1 LPS, the Kd is 4.46 nM.

B2: KPE33 H33+L2016(1EQ): further optimized variant of KPE33v2016, VH SEQ ID NO:62, VL SEQ ID NO:63 (antibody, V domains shown)
VH: QVQLVESGGGLVQPGRSLRLSCAASGFIFDDYAIHWVRQAPGKGLEWVSGIAYKSGATNYAESVKGRFTISRDQSKKSLYLQMNSLRAEDTALYYCTRRRASGDNTFYYFDYWGQGTLVTVSS
VL: QIVLTQSPATLSLSPGERATLSCRASQNVNTNLAWYQQKPGQAPRLLIYDASNRATGIPARFSGSGSGTDFTLTISSLEPEDFAVYYCQQTTNWRYTFGQGTKLEIK
For the molecule B2, the “survival, lethal pneumonia Kp1131115” value in assay [1] is given as “dose dependently enhanced survival”. For the same molecule, the Kd at O1 LPS was 5.01 nM.
